± gives the uncertainty stated by the source.

The record followed here is the Human Domainome abundance scans (Beltran et al. 2025).

The labels stand for the following.
B1: Integrator complex subunit 12, residues 155 to 213; numbered along this chain, Q96CB8 (parent)
chain: AMEMGLACVVCRQMMVASGNQLVECQECHNLYHRDCHKPQVTDKEANDPRLVWYCARCT

This data set covers variants of B1. Briefly: abundance fitness (aPCA) (normalised: wild type 0, dead -1); higher = more abundant; growth selection in yeast, the domain comes from the species named. The note with it: Homo sapiens.
As for R34V, the abundance fitness was -0.018 ± 0.051.
As for R34S, the abundance fitness is 0.009 ± 0.052.
In the case of R34K, the abundance fitness was 0.229 ± 0.068.
For R34Y, the abundance fitness amounted to 0.058 ± 0.073.
As for R34C, the figure is -0.17 ± 0.087.
With R34F, the abundance fitness is 0.016 ± 0.076.
As for R34E, the figure is -0.016 ± 0.12.
For C58E the value was -0.906 ± 0.099; for C58G, -0.851 ± 0.059.
As for C58I, the abundance fitness is -1.39 ± 0.24.
With C58Y, the abundance fitness is -1.08 ± 0.12.
As for D48R, the figure is -0.154 ± 0.044; as for D48L, -0.138 ± 0.047.
On to C8S, for which the abundance fitness was -0.757 ± 0.039.
As for C8K, the figure is -0.874 ± 0.089; as for C8H, -0.901 ± 0.058.
In the case of C8L, the abundance fitness is -0.978 ± 0.054.
For M14D the value was 0.101 ± 0.037.
As for M14T, the abundance fitness came to 0.016 ± 0.064.
As for M14G, the figure is 0.115 ± 0.033.
As to M14K, the abundance fitness is 0.085 ± 0.055.
For G19M the value was -0.206 ± 0.078.
Regarding G19W, the abundance fitness is -0.286 ± 0.065.
Regarding G19A, the abundance fitness was -0.042 ± 0.042.
As for G19T, the figure is -0.026 ± 0.068; as for D35K, -0.087 ± 0.057; as for G5E, 0.066 ± 0.067.
For G5N the value was 0.043 ± 0.037; for K44S, -0.074 ± 0.046; for K44T, 0.043 ± 0.048.
Regarding A7W, the abundance fitness was -0.41 ± 0.078.
With A7I, the abundance fitness was 0.008 ± 0.039.
For the variant A7S, the abundance fitness amounted to 0.01 ± 0.034.
For M4S the value was 0.045 ± 0.032.
For the variant W53H, the abundance fitness is -0.266 ± 0.097.
Regarding C55T, the abundance fitness was -1.16 ± 0.11.
In the case of C55V, the abundance fitness was -1.08 ± 0.095.
As for C55M, the figure is -1.11 ± 0.11; as for C55P, -0.891 ± 0.11; as for E24I, -0.387 ± 0.041.
As for E24L, the figure is -0.376 ± 0.046.
Turning to E24D, the abundance fitness is -0.117 ± 0.045.
As for E24Q, the abundance fitness is -0.088 ± 0.086.
In the case of S18Y, the abundance fitness is -0.183 ± 0.038.
As for S18L, the figure is -0.107 ± 0.035.
On to S18R, for which the abundance fitness is -0.066 ± 0.036.
Turning to S18F, the abundance fitness was -0.124 ± 0.034.
Turning to L6Y, the abundance fitness is -0.063 ± 0.034.
For L6K the value was 0.173 ± 0.054; for Q40F, -0.023 ± 0.086.
Consider Q40D, for which the abundance fitness is -0.07 ± 0.071.
With H29V, the abundance fitness is -0.438 ± 0.035.
Regarding H29W, the abundance fitness was -0.426 ± 0.066.
Take H29L: the abundance fitness is -0.275 ± 0.039.
For C36D the value was -0.802 ± 0.051.
As for C36I, the figure is -0.691 ± 0.039; as for C36W, -0.843 ± 0.079.
For Q21H the value was 0 ± 0.05; for Q26S, -0.045 ± 0.039.
As for Q26W, the abundance fitness was -0.117 ± 0.065.
Consider Q26R, for which the abundance fitness was -0.008 ± 0.042.
With Q26C, the abundance fitness is -0.038 ± 0.049.
As for R57V, the figure is -0.074 ± 0.038; as for R57L, -0.122 ± 0.042; as for P49M, -0.06 ± 0.069.
For P49A the value was -0.046 ± 0.049; for P49C, -0.318 ± 0.077; for P49I, 0.002 ± 0.14.
P49S: the abundance fitness was -0.007 ± 0.053.
For L22Y, the abundance fitness came out at 0.039 ± 0.04.
As for L22N, the figure is -0.042 ± 0.045; as for L22K, 0.01 ± 0.078.
For V16Q the value was -0.013 ± 0.072; for V16N, 0.016 ± 0.036.
For V16Y the value was -0.144 ± 0.035; for C25H, -0.72 ± 0.11; for C25R, -0.714 ± 0.084.
Consider C25G, for which the abundance fitness was -0.66 ± 0.078.
For C25V the value was -0.819 ± 0.082; for C25Q, -0.458 ± 0.18.
For the variant N30D, the abundance fitness worked out at 0.079 ± 0.041.
As for N30I, the figure is -0.231 ± 0.041; as for N47T, -0.075 ± 0.05; as for N47K, -0.046 ± 0.066.
For N47P the value was -0.2 ± 0.056.
Consider N47Y, for which the abundance fitness was -0.223 ± 0.08.
For T59R, the abundance fitness is -0.002 ± 0.055.
Turning to T59H, the abundance fitness is 0.035 ± 0.077.
For the variant T59M, the abundance fitness is -0.237 ± 0.13.
Take T59S: the abundance fitness came out at 0.045 ± 0.064.
In the case of T59V, the abundance fitness is -0.227 ± 0.12.
As for T59C, the abundance fitness is -0.25 ± 0.18.
For T59L the value was -0.249 ± 0.068.
Take N20H: the abundance fitness was -0.015 ± 0.038.
As for N20Y, the figure is -0.171 ± 0.034; as for N20D, 0.005 ± 0.036; as for E45Q, -0.014 ± 0.073.
On to E45G, for which the abundance fitness is -0.222 ± 0.049.
For E45M the value was -0.193 ± 0.068; for E45F, -0.192 ± 0.086.
Take Q13A: the abundance fitness was -0.088 ± 0.047.
For Q13H the value was -0.043 ± 0.039.
Y32M: the abundance fitness was -0.143 ± 0.055.
Take Y32L: the abundance fitness is -0.152 ± 0.038.
For Y32R the value was -0.308 ± 0.038.
As to R50I, the abundance fitness is -0.242 ± 0.089.
As for R50P, the figure is -0.033 ± 0.059.
Turning to R50F, the abundance fitness is -0.126 ± 0.084.
As to E3G, the abundance fitness is -0.167 ± 0.034.
For the variant E3C, the abundance fitness is -0.168 ± 0.034.
Turning to V9I, the abundance fitness is -0.101 ± 0.035.
For H37R, the abundance fitness was -0.315 ± 0.038.
For H37I the value was -0.007 ± 0.035.
Consider H37C, for which the abundance fitness was -0.144 ± 0.034.
For A56V the value was -0.128 ± 0.036; for C11F, -0.898 ± 0.046.
C11A: the abundance fitness is -0.937 ± 0.078.
Consider M2K, for which the abundance fitness was -0.013 ± 0.075.
As for V52M, the abundance fitness is -0.033 ± 0.055.
For V52A the value was 0.036 ± 0.051; for V52W, -0.36 ± 0.092; for V41E, -0.303 ± 0.059.
V41C: the abundance fitness is -0.276 ± 0.081.
Regarding D43R, the abundance fitness was -0.25 ± 0.032.
As for D43V, the abundance fitness was -0.057 ± 0.039.
For C28G the value was -0.519 ± 0.033.
For V10Y the value was -0.202 ± 0.035; for V10I, -0.047 ± 0.032; for V10F, -0.241 ± 0.034.
As for K38N, the abundance fitness was -0.209 ± 0.085.
Take K38T: the abundance fitness was determined as 0.011 ± 0.045.
For A46W the value was -0.063 ± 0.052; for A46C, -0.149 ± 0.067; for A46K, 0.05 ± 0.062.
For A46E the value was -0.061 ± 0.053.
With A46P, the abundance fitness was -0.202 ± 0.071.
As to A1T, the abundance fitness was 0.125 ± 0.068.
For A1W the value was -0.199 ± 0.24.
As for V23T, the figure is -0.158 ± 0.042; as for V23K, -0.164 ± 0.055.
For E27D the value was -0.049 ± 0.036.
Regarding E27T, the abundance fitness is -0.036 ± 0.039.
As for E27P, the abundance fitness was -0.67 ± 0.06.
As for E27L, the figure is -0.105 ± 0.034; as for E27Q, -0.096 ± 0.083.
For E27M the value was -0.103 ± 0.054; for E27Y, -0.208 ± 0.034.
Take L31S: the abundance fitness is 0.046 ± 0.032.
On to L31M, for which the abundance fitness is -0.008 ± 0.051.
As for L31W, the figure is 0.101 ± 0.049; as for L31N, 0.027 ± 0.036; as for Y54T, 0.067 ± 0.062.
For Y54L the value was 0.026 ± 0.046; for Y54S, 0.04 ± 0.052; for Y54R, 0.116 ± 0.054.
As to A17F, the abundance fitness is -0.233 ± 0.04.
As for A17T, the figure is -0.065 ± 0.044; as for A17I, -0.098 ± 0.038; as for A17W, -0.388 ± 0.08.
For A17V the value was -0.075 ± 0.035; for A17Y, -0.091 ± 0.044.
As for A17E, the figure is -0.04 ± 0.074.
With A17L, the abundance fitness is -0.179 ± 0.041.
A17R: the abundance fitness is -0.03 ± 0.038.
As for L51K, the figure is 0.089 ± 0.063.
As for L51F, the figure is -0.048 ± 0.081; as for H33W, -1.21 ± 0.14.
